# Article PMC12732313, “Phylogenetic and biochemical analysis of the evolution and interdomain modularity of bifunctional L-fucokinase/GDP-fucose pyrophosphorylases” (The Journal of Biological Chemistry, 2025)
# T1: TxFKP (Thermophagus xiamenensis, UniProt A0A1I2DJ10)
# T1 construct: gene SAMN05444380_11920; codon-optimized gene in pET-28a, E. coli BL21(DE3) with GroEL/GroES/Trigger Factor; Ni-IMAC; GroEL (~60 kDa) contaminant remains
# T1 sequence (A0A1I2DJ10 1-954): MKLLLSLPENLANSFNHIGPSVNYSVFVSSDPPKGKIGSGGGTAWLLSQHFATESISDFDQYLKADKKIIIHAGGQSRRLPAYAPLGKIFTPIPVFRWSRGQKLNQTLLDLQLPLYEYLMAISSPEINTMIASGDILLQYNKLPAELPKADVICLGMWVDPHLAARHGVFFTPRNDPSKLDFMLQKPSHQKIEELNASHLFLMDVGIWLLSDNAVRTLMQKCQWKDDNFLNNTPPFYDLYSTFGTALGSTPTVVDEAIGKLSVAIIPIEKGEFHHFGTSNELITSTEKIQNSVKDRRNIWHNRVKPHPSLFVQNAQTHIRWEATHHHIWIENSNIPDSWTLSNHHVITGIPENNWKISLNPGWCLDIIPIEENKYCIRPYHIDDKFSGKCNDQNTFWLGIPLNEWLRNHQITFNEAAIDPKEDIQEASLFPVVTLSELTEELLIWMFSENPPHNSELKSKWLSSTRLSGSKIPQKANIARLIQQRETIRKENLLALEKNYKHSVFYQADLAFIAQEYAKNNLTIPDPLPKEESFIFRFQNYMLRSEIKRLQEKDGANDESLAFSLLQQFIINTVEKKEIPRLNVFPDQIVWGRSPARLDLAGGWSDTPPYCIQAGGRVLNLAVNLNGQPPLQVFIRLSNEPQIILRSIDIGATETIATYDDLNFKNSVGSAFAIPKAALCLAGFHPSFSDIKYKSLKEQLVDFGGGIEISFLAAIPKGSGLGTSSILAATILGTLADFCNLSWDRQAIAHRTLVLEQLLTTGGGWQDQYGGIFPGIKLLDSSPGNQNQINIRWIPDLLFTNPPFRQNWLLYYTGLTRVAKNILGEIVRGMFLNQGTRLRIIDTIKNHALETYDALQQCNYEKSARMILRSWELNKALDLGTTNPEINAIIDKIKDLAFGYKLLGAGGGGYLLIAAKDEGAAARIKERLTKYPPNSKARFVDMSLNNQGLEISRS
# B1: TxFKP (Thermophagus xiamenensis) (protein)
# chain: MKLLLSLPENLANSFNHIGPSVNYSVFVSSDPPKGKIGSGGGTAWLLSQHFATESISDFDQYLKADKKIIIHAGGQSRRLPAYAPLGKIFTPIPVFRWSRGQKLNQTLLDLQLPLYEYLMAISSPEINTMIASGDILLQYNKLPAELPKADVICLGMWVDPHLAARHGVFFTPRNDPSKLDFMLQKPSHQKIEELNASHLFLMDVGIWLLSDNAVRTLMQKCQWKDDNFLNNTPPFYDLYSTFGTALGSTPTVVDEAIGKLSVAIIPIEKGEFHHFGTSNELITSTEKIQNSVKDRRNIWHNRVKPHPSLFVQNAQTHIRWEATHHHIWIENSNIPDSWTLSNHHVITGIPENNWKISLNPGWCLDIIPIEENKYCIRPYHIDDKFSGKCNDQNTFWLGIPLNEWLRNHQITFNEAAIDPKEDIQEASLFPVVTLSELTEELLIWMFSENPPHNSELKSKWLSSTRLSGSKIPQKANIARLIQQRETIRKENLLALEKNYKHSVFYQADLAFIAQEYAKNNLTIPDPLPKEESFIFRFQNYMLRSEIKRLQEKDGANDESLAFSLLQQFIINTVEKKEIPRLNVFPDQIVWGRSPARLDLAGGWSDTPPYCIQAGGRVLNLAVNLNGQPPLQVFIRLSNEPQIILRSIDIGATETIATYDDLNFKNSVGSAFAIPKAALCLAGFHPSFSDIKYKSLKEQLVDFGGGIEISFLAAIPKGSGLGTSSILAATILGTLADFCNLSWDRQAIAHRTLVLEQLLTTGGGWQDQYGGIFPGIKLLDSSPGNQNQINIRWIPDLLFTNPPFRQNWLLYYTGLTRVAKNILGEIVRGMFLNQGTRLRIIDTIKNHALETYDALQQCNYEKSARMILRSWELNKALDLGTTNPEINAIIDKIKDLAFGYKLLGAGGGGYLLIAAKDEGAAARIKERLTKYPPNSKARFVDMSLNNQGLEISRS
# notes: codon-optimized gene in pET-28a, E. coli BL21(DE3) with GroEL/GroES/Trigger Factor; Ni-IMAC; GroEL (~60 kDa) contaminant remains
# Key:
# BfFKP = molecular target: T2, BfFKP (Bacteroides fragilis, UniProt Q58T34); assay: thermal shift, SYPRO orange; format: binding; settings: 2 mM L-fucose, pH 7.0; lower melting transition; domain not assigned
# T2 construct: gene fkp; codon-optimized gene in pET vector, E. coli BL21(DE3) with GroEL/GroES/Trigger Factor; Ni-IMAC; no solubility tag
# T2 sequence (Q58T34 whole entry): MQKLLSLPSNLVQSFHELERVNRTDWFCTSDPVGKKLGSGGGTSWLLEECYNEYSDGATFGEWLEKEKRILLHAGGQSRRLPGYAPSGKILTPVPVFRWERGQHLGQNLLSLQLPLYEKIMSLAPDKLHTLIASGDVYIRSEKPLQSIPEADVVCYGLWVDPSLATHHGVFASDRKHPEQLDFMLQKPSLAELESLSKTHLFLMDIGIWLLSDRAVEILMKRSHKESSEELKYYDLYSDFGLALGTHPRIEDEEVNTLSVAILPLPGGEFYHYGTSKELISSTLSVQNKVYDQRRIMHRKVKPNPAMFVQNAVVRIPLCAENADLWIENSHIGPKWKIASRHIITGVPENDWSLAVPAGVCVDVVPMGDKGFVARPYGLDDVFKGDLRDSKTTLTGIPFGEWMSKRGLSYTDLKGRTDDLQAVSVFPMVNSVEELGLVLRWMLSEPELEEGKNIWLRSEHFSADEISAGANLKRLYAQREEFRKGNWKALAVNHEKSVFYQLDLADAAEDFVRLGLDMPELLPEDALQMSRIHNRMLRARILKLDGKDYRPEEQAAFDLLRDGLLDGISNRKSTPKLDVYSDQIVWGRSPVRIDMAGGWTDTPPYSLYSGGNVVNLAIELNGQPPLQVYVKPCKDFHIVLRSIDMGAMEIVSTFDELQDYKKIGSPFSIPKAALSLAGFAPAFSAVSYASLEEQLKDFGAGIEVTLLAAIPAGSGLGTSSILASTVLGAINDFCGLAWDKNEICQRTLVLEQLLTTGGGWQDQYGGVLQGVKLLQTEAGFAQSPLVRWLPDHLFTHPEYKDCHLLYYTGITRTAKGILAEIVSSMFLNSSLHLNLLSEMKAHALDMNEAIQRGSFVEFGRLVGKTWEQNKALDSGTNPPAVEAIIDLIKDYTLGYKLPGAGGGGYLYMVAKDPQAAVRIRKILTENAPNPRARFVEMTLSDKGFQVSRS
# Excerpt: thermal shift, SYPRO orange on BfFKP
# TxFKP = molecular target: T1, TxFKP; assay: thermal shift, SYPRO orange; format: binding; settings: 2 mM L-fucose, pH 7.0; Tm2 assigned to FUK domain
# Excerpt: thermal shift, SYPRO orange on TxFKP
# [1] = system: C[C@@H]1O[C@H](OP(=O)(O)O)[C@@H](O)[C@H](O)[C@@H]1O; assay: purified protein; settings: pyrophosphorylase activity, 400 μM GTP, 10 mM MgCl2, pH 7.5, 37 °C
# [2] = system: Nc1nc2c(ncn2[C@@H]2O[C@H](COP(=O)(O)OP(=O)(O)OP(=O)(O)O)[C@@H](O)[C@H]2O)c(=O)[nH]1; assay: purified protein; settings: pyrophosphorylase activity, 250 μM Fuc-1-P, 10 mM MgCl2, pH 7.5, 37 °C
# purified protein [3] = substrate: C[C@@H]1O[C@H](OP(=O)(O)O)[C@@H](O)[C@H](O)[C@@H]1O; assay: purified protein; format: biochemical, Thermophagus xiamenensis; settings: pyrophosphorylase activity, 100 μM GTP, 10 mM MgCl2, pH 7.5, 37 °C
# purified protein [4] = substrate: Nc1nc2c(ncn2[C@@H]2O[C@H](COP(=O)(O)OP(=O)(O)OP(=O)(O)O)[C@@H](O)[C@H]2O)c(=O)[nH]1; assay: purified protein; format: biochemical, Thermophagus xiamenensis; settings: pyrophosphorylase activity, 250 μM Fuc-1-P, 10 mM MgCl2, pH 7.5, 37 °C
# purified protein [5] = substrate: Nc1ncnc2c1ncn2[C@@H]1O[C@H](COP(=O)(O)OP(=O)(O)OP(=O)(O)O)[C@@H](O)[C@H]1O; assay: purified protein; format: biochemical, Thermophagus xiamenensis; settings: kinase activity, 1 mM L-fucose, 10 mM MnCl2, pH 7.5, 37 °C
molecule,measurement,setting,value
C[C@@H]1OC(O)[C@@H](O)[C@H](O)[C@@H]1O (stereo partly drawn) [L-fucose],ΔTm1 (°C),BfFKP,2.0 ± 0.0 °C
same,Δ Tm2 (°C),TxFKP,1.8 ± 0.2 °C
BfFKP (Bacteroides fragilis),Km,[1],120 ± 60 µM
same,kcat,[1],9 ± 3 s⁻¹
same,kcat/Km,[1],70000 ± 50000 M⁻¹ s⁻¹
same,Km,[2],140 ± 30 µM
same,kcat,[2],13 ± 3 s⁻¹
same,kcat/Km,[2],90000 ± 30000 M⁻¹ s⁻¹
B1,Km,purified protein [3],66 ± 20 µM
same,kcat,purified protein [3],4.8 ± 0.6 s⁻¹
same,kcat/Km,purified protein [3],70000 ± 30000 M⁻¹ s⁻¹
same,Km,purified protein [4],27 ± 11 µM
same,kcat,purified protein [4],8 ± 1.1 s⁻¹
same,kcat/Km,purified protein [4],300000 ± 130000 M⁻¹ s⁻¹
same,Km,purified protein [5],1000 ± 300 µM
same,kcat,purified protein [5],0.74 ± 0.07 s⁻¹
same,kcat/Km,purified protein [5],700 ± 300 M⁻¹ s⁻¹
